Series [1] deals with recombinant 6x-His-tagged isocitrate dehydrogenase from Methylobacillus flagellatus (Methylobacillus flagellatus ATCC51484). The series is described as follows: SEC; HiLoad 10/300 Superdex 200, 0.05 M potassium phosphate buffer pH 7.0, 0.15 M NaCl, 0.01% sodium azide, 0.5 mL/min; calibrated with standards of 29-669 kDa. (Size exclusion chromatography separates by hydrodynamic size, large species first.)

Series [2] deals with native isocitrate dehydrogenase from Methylobacillus flagellatus (Methylobacillus flagellatus ATCC51484). Put plainly: native gel or EMSA; gradient non-denaturing PAGE (4-20%, w/v), protein stain and zymogram staining for NAD+- and NADP+-dependent activity; band compared with protein markers. A general note: In EMSA bound probe runs differently from free probe, usually more slowly.

Another series has as its target T1, MfIDH (Methylobacillus flagellatus, UniProt Q1GZD1).
T1 construct: gene Mfla_2139; native enzyme purified from M. flagellatus cells, untagged; 413 residues; homodimer (recombinant N-terminal 6xHis form said to be essentially the same)
T1 sequence (Q1GZD1 1-413): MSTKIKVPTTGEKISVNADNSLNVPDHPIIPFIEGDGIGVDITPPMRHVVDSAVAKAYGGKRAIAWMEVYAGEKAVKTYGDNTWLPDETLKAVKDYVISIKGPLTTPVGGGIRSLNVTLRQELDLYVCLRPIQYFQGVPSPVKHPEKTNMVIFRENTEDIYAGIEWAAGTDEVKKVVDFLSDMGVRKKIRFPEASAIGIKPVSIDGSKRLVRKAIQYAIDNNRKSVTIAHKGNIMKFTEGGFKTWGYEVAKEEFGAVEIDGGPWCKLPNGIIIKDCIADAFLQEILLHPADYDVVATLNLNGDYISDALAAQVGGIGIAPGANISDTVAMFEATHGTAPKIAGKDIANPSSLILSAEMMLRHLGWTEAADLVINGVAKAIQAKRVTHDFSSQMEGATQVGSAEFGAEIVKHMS
Put plainly: NAD(P)H formation at […] nm. The following applies: read-out: % inhibition at 2 mM. The series is classed as biochemical.

Substrate in series [3]: O=C(O)CC(C(=O)O)C(O)C(=O)O
Put plainly: purified protein. The series is classed as biochemical, Methylobacillus flagellatus. The following applies: cosubstrate NAD+ (saturating), Mn2+, 100 mM Tris-HCl pH 8.5, 42°C, pH 8.5.

Substrate in series [4]: NC(=O)c1ccc[n+]([C@@H]2O[C@H](COP(=O)(O)OP(=O)(O)OC[C@H]3O[C@@H](n4cnc5c(N)ncnc54)[C@H](O)[C@@H]3O)[C@@H](O)[C@H]2O)c1
The series is described as follows: purified protein. The series is classed as biochemical, Methylobacillus flagellatus. Conditions: saturating DL-isocitrate, Mn2+, 100 mM Tris-HCl pH 8.5, 42°C, apparent, pH 8.5.

Substrate in series [5]: NC(=O)c1ccc[n+]([C@@H]2O[C@H](COP(=O)(O)OP(=O)(O)OC[C@H]3O[C@@H](n4cnc5c(N)ncnc54)[C@H](OP(=O)(O)O)[C@@H]3O)[C@@H](O)[C@H]2O)c1
The series is described as follows: purified protein. The following applies: saturating DL-isocitrate, Mn2+, 100 mM Bis-Tris-HCl pH 6.0, 42°C, apparent, pH 6.0. It is filed as biochemical, Methylobacillus flagellatus.

Four molecules from PMC5397045, “Biochemical and molecular characterization of the isocitrate dehydrogenase with dual coenzyme specificity from the obligate methylotroph Methylobacillus Flagellatus” (PLoS ONE, 2017) can be followed below.

The stoichiometry N is a count of units in the complex or per binding partner. Regarding “recombinant 6x-His-tagged isocitrate dehydrogenase from Methylobacillus flagellatus (enzyme)”, the stoichiometry N in series [1] was 2.

The molecule “native isocitrate dehydrogenase from Methylobacillus flagellatus (enzyme)” came in with a stoichiometry N in series [2] of 2.

The inhibition is the change of the read-out against control, counted positive when it falls. Regarding `Nc1ncnc2c1ncn2[C@@H]1O[C@H](COP(=O)(O)OP(=O)(O)OP(=O)(O)O)[C@@H](O)[C@H]1O` [ATP], the inhibition at 2000 µM at MfIDH was determined as 50%.

B1: MfIDH (Methylobacillus flagellatus KT) (protein)
chain: T1 sequence (Q1GZD1 1-413)
notes: native enzyme purified from M. flagellatus cells, untagged; 413 residues; homodimer (recombinant N-terminal 6xHis form said to be essentially the same)
As a reminder, the Km is the concentration of substrate that gives half-maximal velocity. A word on the kcat: it is the number of substrate molecules converted per active site and unit of time at saturation. One may read the kcat/Km as the turnover number divided by the Michaelis constant. As to B1, the Km in “purified protein [3]” stood at 9.0 µM. Besides, in the series “purified protein [4]”, the Michaelis-Menten constant (Km) was 113 µM, the kcat came to 166 s⁻¹ and the kcat/Km is 1.5e+06 M⁻¹ s⁻¹. Besides, in “purified protein [5]”, the Km came out at 184 µM, the kcat was found to be 56 s⁻¹ and the kcat/Km came out at 300000 M⁻¹ s⁻¹.
